assay: yeast display, Sf9 membrane polyspecificity reagent, FACS + sequencing; frameworks hold sequencing errors
Method in brief: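 Galactose induction of a Saccharomyces cerevisiae BJ5465 synthetic nanobody display library ran 36–48 hours. The cells were then stained for 1 hour at 4 °C with 10% biotinylated, detergent-solubilized Sf9 membrane reagent, pulled down on streptavidin microbeads and FACS-sorted into low and high (top ~1%) gates on expression and reagent-binding fluorescence. Labels for polyreactivity follow the gate of origin.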

Sequence	polyreactivity (PSR sort gate)
QVQLVESGGGLVQAGGSLRISCAASGNTFWKYAMGWYRQAPGKERELVAAISKSGGSTYYADSVKGRFTISRDNAKNTVYLQMNSLKPEDTAVYYCAAVNYRWYSRNYDHYYWGQGTQVTVSS	high polyreactivity
QVQLVESGGGLVQAGGSLRLSCAASGFTFRYYAMGWYRQAPGKERELVAAIDWSGGSTYYADSVKGRFTISRDNAKNTVYLQMNSLKPEDTAVYYCNAVLVPREYYSWGQGTQVTVSS	low polyreactivity
QDQLVESGGGLVQAGGSLRLSCDASGSTFYRYDMGRSRQAPGKERELFAAINQSGDSTYYADSVKGRFTISRDKAKNTVYLQMNSLKPEDTAVYYCAAVRSRYLAFYYWGQCTQVTVSS	low polyreactivity
QVQHVESGGGLVQAGGSLRLSCAASGFTFGYYAMGWYRQAPGKERELVAAISGSGGGTYYADSVKGRFTISRDNAKNTVYLQMNSLKPEDTAVYYCNTGRYDRKYDYWGQGTQVTVSS	high polyreactivity
QVQLVESGGGLVQAGGSLRLSCAASGRIFTSYAMGWYRQAPGKEREFVAAITKSGGSTYYADSVKGRFTISRDNAKNTVYLQMNSLKPEDTAVYYCAVEGWDVYQDPYLYDYWGQGTQVTVSS	low polyreactivity
QVQLVESGGGLVQAGGILRLSSDTSRSIFSTNGMGWYRPAHGKERELVAAMSTGGRKYYADSVKVRFTISRDNAKNTVYLQMNSLIPEDSAVFYCAIDHWTTSYDEGYYWGQGTQVTVSW	low polyreactivity
QVQLVESGGGLVQAGGSLRLSCAASGFTFNQYAMGWYRQAPGKERELVAAITGSGGSTYYADSVKGRFTISRDNAKNTVYLQMNSLKPEDTAVYYCNRDRFSRFYWGQGTQVTVSS	high polyreactivity
QVQLVESGGRLVQAGGSLRLSCAASGRIFLSYAMGWYRQAPGKERELVAAISRSGGRTYYADSVKGRFTISRDNAKNTVYLQMNSLKPEDTAVYYCNVVVYVLRHYLRYDYWGQGTQVTVSS	high polyreactivity
QVQHVESGGGLVQAGGSLRLSCAASGIYYNAMGWYRQAPGKERELVAVITYSGGSTYYADSVKGRFTISRDNAKNTVYLQMNSLKPEETAVYYCAADDYYVALPGLYDYWGQGTQVTVSS	low polyreactivity
QVQLVESGAGLVQAGGSLRLSSAASGGTFGHYVMGWYRPAPGKERELVAVISRRGGSTYYADSVKGRFTISRDTAKNTVYLQMNSLKPEDTAVYYCAAYQDVSYFKYSPYDYWGQGTQVTVSS	high polyreactivity
QVQLVESGGGLVQAGGSLRLSCAASGFIFYYNAMVWYRQAPGKERELVAAITDDGGGTYYADSVKGRFTISRDNAKNTVYLQMNSLKPEDTAVYYCAADGYNYEHDYWGQGTQVTVSS	low polyreactivity
QVQLVESGGGLVQAGGSLRLSCAASGRIFPGYTMGWYRQAPGKERELVAGISRSGGRTYYADSVKGRFTISRDNAKNTVYLQMNSLKPEDTAVYYCADDGYPGRRYTGMDYWGQGTQVTVSS	high polyreactivity
QVQLVESGGGLVQAGGSLRLSCAASGRIFNAYATGWYRKAPGKERELVAAISSIGGRTYYADSVKGRFTISRDNAKNTVYLQMNSLKPEETAVYYCAARRRSRQYRYDYWGQGTQVTVSS	high polyreactivity
QVQLVESGGGLVQAGGSLRLSCAASGRTFYPNAMGWYRQAPGKERELVAAITRSGGRTYYADSVKGRFTISRDNAKNTVYLQMNSLKPEDTAVYYCNADLYYHYYKYEYWGQGTQVTVSS	low polyreactivity
QVQLQESGGGLVQASGSIFHEPNMGWHRQAPGKERELVATISDGAITNYADSVKGRFTISRDNAKNTVYLQMNSLKPEDTAVYYCAVVVHLYTDLRYWGQDTQVTVSS	high polyreactivity
QVQLVESGGGLVQAGGRLRLSCAASGSIFGFYAMGWYRPAPGKERELVAGISVSDGSTYYADSVKGRFTISRDNAKNTVYLQMNSLKPEDTAVYYCAASPRGSYGYYYWGQGTQVTVSS	low polyreactivity
QVQLVESGGGLVQAGGSLRLSCAASGITFRYYAMGWYRQAPGKERELVAVITYSGSRTYYADSVKGRFTISRDNAKNTVYLQMNSLKPEDTAVYYGATKGAKRVIGETAYDYWGQGTQVTVSS	high polyreactivity

Source: the nanobody polyreactivity screen of Harvey et al. (2022)
